For assay [1], the target named is Programmed death-ligand 1 (PD-L1) (Homo sapiens (assumed), UniProt Q9NZQ7). Kind of assay: SPR; format and conditions not told. The conditions noted are these: both partners purified.
Assay [2] addresses SARS-CoV-2 RBD (residues 332-527), wild type (SARS-CoV-2, wild type (Wuhan-Hu-1), UniProt P0DTC2).
For another assay, the target named is RBD of COVID-19 (SARS-CoV-2, wild type (Wuhan-Hu-1) …, UniProt P0DTC2).

Numbering of substitutions follows the chain as printed. Numbers in names are those of the source.

This passage reports binding result and Kd results from publication doi:10.1101/2025.09.12.675771 (bioRxiv, 2025).

Chain of Programmed death-ligand 1 (PD-L1) (Q9NZQ7 19-290): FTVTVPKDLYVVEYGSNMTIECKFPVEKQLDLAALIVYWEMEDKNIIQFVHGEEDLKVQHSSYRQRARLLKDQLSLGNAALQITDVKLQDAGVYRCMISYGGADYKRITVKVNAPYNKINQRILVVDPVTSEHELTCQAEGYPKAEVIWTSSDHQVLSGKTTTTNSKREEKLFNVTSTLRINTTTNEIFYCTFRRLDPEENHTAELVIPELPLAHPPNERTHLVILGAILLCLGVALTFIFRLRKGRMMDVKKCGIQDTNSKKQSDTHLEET

B1: D3 (antibody, V domains shown)
VH: not shown
VL: DIQMTQSPSTLSASVGDRVTITCRASQTIGTWLAWYQQKPGKAPKLLIYTATSLADGVPSRFSGSGSGTEFTLTISSLQPDDFATYYCQQVSSNPRTFGQGTKVEIK
Consider B1, for which the binding result in assay [1] is “binds”.

B2: R1-32-Q61E-WT (antibody, V domains shown)
VH: EVQLVQSGAEVKKPGSSVKVSCKASGGTFSSYFISWVRQAPGQGLEWMGGIIPILGIADYAEKFQGRVTITADKSTSTAYMELSSLRSEDTAVYYCARENGYSGYGAAYNFDLWGRGTLVTVSS
VL: QSVLTQPPSVSGAPGQRVTISCTGSDSNIGAGYDVHWYQQLPGTAPKLLIYGNSNRPSGVPDRFSGSKSGTSASLAITGLQAEDEADYYCQSYDSSLSGSVFGGGTKLTVL
As for B2, in assay [2], the binding result is reported as “binds”.

B3: Human-1 (antibody, V domains shown)
VH: QVQLKESGPGLVKPSQTLSLTCTVSGFSLINYAISWIRQPPGKGLEWIGVIWTGGGTNYNSALKSRLTISKDTSKNQVSLKLSSVTAADTAVYYCARKDYYGRYYGMDYWGQGTTVTVSS
VL: QAVVTQEPSFTVSPGGTVTLTCRSSTGAVTTSNYANWYQQTPGQLFTGLIGGTNNRAPGVPDRFSGSLLGDKAALTITGAQADDEAIYYCALWYNNHWVFGGGTKLTVL
As for B3, the Kd (in general, a measure of binding affinity in units of concentration) with RBD of COVID-19 worked out at 0.171 nM. In other words, the sub-nanomolar range.

B4: Human-5 (antibody, V domains shown)
VH: QVQLQESGPGLVKPSETLSLTCTVSGFSLINYAISWVRQPPGKGLEWLGVIWTGGGTNYNSALKSRLTISKDNSKNTVYLKMNSLKTEDTARYYCARKDYYGRYYGMDYWGQGTLVTVSS
VL: B3 VL with T11S, Y38V, Q40E, L45A, T47R, D71N, A86S
The molecule B4 came in with a Kd with RBD of COVID-19 of 0.139 nM.

B5: D1 (antibody, V domains shown)
VH: not shown
VL: DIQMTQSPSTLSASVGDRVTITCKASQDVNTAVAWYQQKPGKAPKLLIYWASTLHTGVPSRFSGSGSGTEFTLTISSLQPDDFATYYCQHYYTDPWTFGQGTKVEIK
With B5, the Kd in assay [1] came out at 0.084 nM. In other words, the picomolar range.

B6: D2 (antibody, V domains shown)
VH: not shown
VL: DIQMTQSPSTLSASVGDRVTITCRASQDVSSYLAWYQQKPGKAPKLLIYAASFLQSGVPSRFSGSGSGTEFTLTISSLQPDDFATYYCQQHYSTPPTFGQGTKVEIK
As to B6, in assay [1], the binding result is on record as “binds”.

B7: D4 (antibody, V domains shown)
VH: EVQLLESGGGLVQPGGSLRLSCAASGFTFSNYAMSWVRQAPGKGLEWVSAISSGGGYTYYADSVKGRFTISRDNSKNTLYLQMNSLRAEDTAVYYCAKDHDYAYYAFDYWGQGTLVTVSS
VL: B6 VL with D28S, V29I, S31N, Y32W, A50W, F53T, Q55E, H91Y, Y92A, P96L
As for B7, the binding result in assay [1] was “binds”.
